According to paper PMC8476643 (Nature Communications, 2021):

B1: 7D6 monoclonal antibody (antibody, V domains shown)
VH: EVQLQQSGAELVRPGASVKLSCTASGFNIKDTYIHWVKQRPEQGLEWIGRIDPGDGDTEYDPSFQGKATITADTSSNTAYLELSSLTSEDTAVYYCTRFYDYVDYGMDYWGQGTSVTVSS
VL: DIQMTQSPASLSASVGETVTITCRASGNIHNYLAWYQQKQGKSPQLLVYNAKTLADGVPSRFSGSGSGTQYSLKINSLQPEDFGSYYCQHFWSTPPWTFGGGTKLEVK
notes: also called mAb 7D6; source: mouse hybridoma, ascites, purified (protein A agarose); copies: 2 + 2
B2: 6D6 monoclonal antibody (antibody, V domains shown)
VH: EVQLQQSGAELVKPGASVKLSCTTSGFNIIDTYMHWVKQRPEEGLEWIGGIDPVNGNSEYDPKFQDKATITADTSSNTAYLHLSRLTSEDTAVYYCASAHYYGSSSSFPYWGQGTLVTVSA
VL: DIVMTQSQKFMSTSVGDRVSVTCKASQNVGTHVAWYQQKPGQSPKALIYSASYRYSGVPDRFTGSGVGTDFTLTITNVQSEDLAEYFCQQYNSYFTFGSGTKLEIK
notes: also called mAb 6D6; source: mouse hybridoma, ascites, purified (protein A agarose); copies: 2 + 2

How the values were obtained:
[1] = molecular target: T1, SARS-CoV-2 two-proline stabilized S trimer (S-2P) (SARS-CoV-2 Wuhan-Hu-1 (GenBank …, UniProt P0DTC2, stabilised)); experiment: SPR; details: both partners purified
T1 construct: also called SARS-CoV-2 S-2P

[2] = molecular target: T1, SARS-CoV-2 two-proline stabilized S …; experiment: SPR; details: both partners purified; remark: listed apart in the source

Binder	Kd [1]	Kd [2]	koff [2]	kon [2]
B1	5.8 nM	5.89 nM	8.81e-05 s⁻¹	15200 M⁻¹ s⁻¹
B2	–	0.03 nM	4.2e-06 s⁻¹	123000 M⁻¹ s⁻¹
